Measurements taken from patent publication US6342588 (CAMBRIDGE ANTIBODY TECHNOLOGY, dated 2002).

Target: recombinant TGFβ1 (R and D Systems) (UniProt P01137 279-390)
Test: method not stated

Sequence of recombinant TGFβ1 (R and D Systems) (P01137 279-390 limits assumed): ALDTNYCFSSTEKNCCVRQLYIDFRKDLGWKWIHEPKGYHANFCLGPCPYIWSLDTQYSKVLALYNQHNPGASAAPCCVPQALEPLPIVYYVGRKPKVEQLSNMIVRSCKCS

B1: 31G9 scFv (scFv)
chain: QVQLVQSGGGVVQPGRSLRLSCAASGFTFSSYGMHWVRQAPGKGLEWVAVISYDGSIKYYADSVKGRFTISRDNSKNTLYLQMNSLRAEDTAVYYCARTGEYSGYDTSGVELWGQGTTVTVSSGGGGSGGGGSGGGGSDIVMTQSPSTLSASVGDRVTITCRASQGISSWLAWYQQKPGRAPKVLIYKASTLESGVPSRFSGSGSGTDFTLTISSLQPEDFATYYCQQSYSTPWTFGQGTKLEIKR
Kd: 1.2 nM
